The text below walks through data of patent US20030082175A1 (Biogen, published 2003).

To fix the notation:
B1: hTRAIN-Fc (Fc fusion, human, UniProt Q9NS68 30-170, looked up)
chain: ESGDCRQQEFRDRSGNCVPCNQCGPGMELSKECGFGYGEDAQCVTCRLHRFKEDWGFQKCKPCLDCAVVNRFQKANCSATSDAICGDCLPGFYRKTKLVGFQDMECVPCGDPPPPYEPHCASKVNLVKIASTASSPRDTAL
notes: not shown: Fc part
B2: FLAG-human APRIL (ligand)
chain: DYKDDDDKGPGQVQLQKQKKQHSVLHLVPINATSKDDSDVTEVMWQPALRRGRGLQAQGYGVRIQDAGVYLLYSQVLFQDVTFTMGQVVSREGQGRQETLFRCIRSMPSHPDRAYNSCYSAGVFHLHQGDILSVIIPRARAKLNLSPHGTFLGFVKL
notes: Made from plasmid ps429 (p1448) in 293T cells; also called FLAG-hAPRIL; FLAG-h APRIL

In experiment [1] the target is T1, FLAG-hBAFF (human, UniProt Q9Y275 136-285, limits assumed).
T1 construct: also called hKayL-440 (hBAFF); hKayL-440; not shown: FLAG tag
The experiment can be described thus: immunoprecipitation from conditioned media with ProtG-Sepharose, anti-FLAG M2 blot. The protocol:
(§1) Immunoprecipitation experiments: 293T cells were transfected with indicated expression plasmid (Rec-Fc or flag ligand) in 9 cm plate. Transfected cells were left for 5d in 8 ml Optimem media (Gibco-BRL). Immunoprecipitation were performed by mixing 200 ul of each receptor-conditioned media with 200 ul of each ligand-conditioned media+400 ul PBS+10 ul ProtG-Sepharose. These were rotated 1 h on a wheel, washed 4× with 1 ml PBS, then boiled in 50 ul sample buffer (+DTT). 20 ul of each immunoprecipitation was loaded per lane. Reveal blotting was done with 1 ug/ml anti-FLAG M2 mAb (Sigma, St Louis Mo.) and anti-mouse PO (1/2000). A reprobe blot with anti-human-PO was also checked: 100 ul conditioned media was precipitated with MeOH/CHC13/lysozyme. This mix was boiled in 50 ul sample buffer (+DTT) and 20 ul was loaded. A Reveal blot was performed with anti-FLAG mAb M2 (1 ug/ml) and anti-mouse-PO (1/2000).

The target in experiment [2] is B2. The experiment is described as above. The protocol: as §1
Experiment [3] has as its target T2, hCD40-Fc (human, UniProt P25942 21-193, limits assumed).
T2 construct: not shown: Fc part
The experiment can be described thus: ELISA, receptor-Fc coated, FLAG-tagged ligand detected with anti-FLAG M2. (In general: In an ELISA, binding on a coated surface is turned into a signal by an enzyme label.)

T1 sequence (Q9Y275 136-285 limits assumed): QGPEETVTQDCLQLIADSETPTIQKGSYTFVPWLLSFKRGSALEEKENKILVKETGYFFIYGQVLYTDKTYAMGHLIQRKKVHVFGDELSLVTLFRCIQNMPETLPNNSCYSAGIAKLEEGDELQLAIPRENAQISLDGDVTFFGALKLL
T2 sequence (P25942 21-193 limits assumed): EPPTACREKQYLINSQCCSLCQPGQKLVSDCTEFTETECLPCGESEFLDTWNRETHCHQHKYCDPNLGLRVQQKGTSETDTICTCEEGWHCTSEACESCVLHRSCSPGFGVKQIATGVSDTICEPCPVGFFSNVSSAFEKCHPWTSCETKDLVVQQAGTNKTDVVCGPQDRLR

Regarding B1, the binding result in experiment [1] and in experiment [2] was “no binding” each time.

With B2, the binding result in experiment [3] is on record as “no binding”.
